Test system: T1, CN=C(NC)NCCC[C@H](N)C(=O)O
T1 construct: HEK293 cells stably expressing human CAT1
Test: [3H]SDMA uptake kinetics (Km) and efflux in HEK-CAT1 cells
Assay type: cell-based, Homo sapiens

Sequence of CAT1 (Homo sapiens) (chain, as listed by the source): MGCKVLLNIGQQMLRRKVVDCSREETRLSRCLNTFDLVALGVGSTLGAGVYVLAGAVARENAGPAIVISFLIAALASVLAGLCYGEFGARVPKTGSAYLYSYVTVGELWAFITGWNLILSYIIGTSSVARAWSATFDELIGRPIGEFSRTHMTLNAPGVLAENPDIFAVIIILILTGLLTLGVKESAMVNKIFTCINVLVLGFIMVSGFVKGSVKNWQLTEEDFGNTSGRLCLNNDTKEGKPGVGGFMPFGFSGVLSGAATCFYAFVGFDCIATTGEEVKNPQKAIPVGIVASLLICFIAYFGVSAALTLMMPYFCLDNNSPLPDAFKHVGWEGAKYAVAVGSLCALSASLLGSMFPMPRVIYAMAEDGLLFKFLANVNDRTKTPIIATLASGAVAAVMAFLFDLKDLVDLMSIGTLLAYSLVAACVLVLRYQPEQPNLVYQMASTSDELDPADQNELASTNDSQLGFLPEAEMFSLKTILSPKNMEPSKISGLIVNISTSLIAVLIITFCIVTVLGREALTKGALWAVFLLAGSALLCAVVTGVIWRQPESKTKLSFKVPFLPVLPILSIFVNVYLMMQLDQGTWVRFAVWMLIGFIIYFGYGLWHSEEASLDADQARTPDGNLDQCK

CAT1 (Homo sapiens)
Km: 246 µM

Source: PMC12187869, “Transport of the uremic toxin symmetric dimethylarginine (SDMA) by renal transport proteins” (Amino Acids, 2025)
